From patent US7537764
Like-named read-outs stand apart in the source and are kept apart here.

How the values were obtained:
[1] = molecular target: West Nile virus strain USA99b (strain 385-99), whole virus (West Nile virus strain 385-99 (USA99b)); experiment: ELISA on irradiated WNV; IgG1 at 0.078 µg/ml
[2] = molecular target: West Nile virus strain USA99b (strain 385-99), whole virus (West Nile virus strain 385-99 (USA99b)); experiment: ELISA on irradiated WNV; IgG1 at 0.310 µg/ml
[3] = molecular target: West Nile virus strain USA99b (strain 385-99), whole virus (West Nile virus strain 385-99 (USA99b)); experiment: ELISA on irradiated WNV; IgG1 at 0.630 µg/ml
[4] = molecular target: West Nile virus strain USA99b (strain 385-99), whole virus (West Nile virus strain 385-99 (USA99b)); experiment: ELISA on irradiated WNV; IgG1 at 10.000 µg/ml
[5] = molecular target: West Nile virus strain USA99b (strain 385-99), whole virus (West Nile virus strain 385-99 (USA99b)); experiment: ELISA on irradiated WNV; IgG1 at 0.039 µg/ml
[6] = molecular target: West Nile virus strain USA99b (strain 385-99), whole virus (West Nile virus strain 385-99 (USA99b)); experiment: ELISA on irradiated WNV; IgG1 at 0.000 µg/ml (no antibody)
[7] = molecular target: West Nile virus strain USA99b (strain 385-99), whole virus (West Nile virus strain 385-99 (USA99b)); experiment: ELISA on irradiated WNV; IgG1 at 2.500 µg/ml
[8] = molecular target: West Nile virus strain USA99b (strain 385-99), whole virus (West Nile virus strain 385-99 (USA99b)); experiment: ELISA on irradiated WNV; IgG1 at 1.250 µg/ml
[9] = molecular target: West Nile virus strain USA99b (strain 385-99), whole virus (West Nile virus strain 385-99 (USA99b)); experiment: cell-based or functional assay
[10] = molecular target: West Nile virus strain USA99b (strain 385-99), whole virus (West Nile virus strain 385-99 (USA99b)); experiment: ELISA on irradiated WNV; IgG1 at 0.160 µg/ml
[11] = molecular target: West Nile virus strain USA99b (strain 385-99), whole virus (West Nile virus strain 385-99 (USA99b)); experiment: ELISA on irradiated WNV; IgG1 at 5.000 µg/ml
[12] = molecular target: West Nile virus strain USA99b (strain 385-99), whole virus (West Nile virus strain 385-99 (USA99b)); experiment: ELISA on irradiated WNV; IgG1 at 20.000 µg/ml
[13] = molecular target: West Nile virus strain USA99b (strain 385-99), whole virus (West Nile virus strain 385-99 (USA99b)); experiment: ELISA on irradiated WNV; IgG1 supernatant diluted 1:5
[14] = molecular target: West Nile virus strain USA99b (strain 385-99), whole virus (West Nile virus strain 385-99 (USA99b)); experiment: ELISA on irradiated WNV; IgG1 supernatant diluted 1:25
[15] = molecular target: West Nile virus strain USA99b (strain 385-99), whole virus (West Nile virus strain 385-99 (USA99b)); experiment: ELISA on irradiated WNV; IgG1 supernatant diluted 1:125
[16] = molecular target: West Nile virus strain USA99b (strain 385-99), whole virus (West Nile virus strain 385-99 (USA99b))
[17] = molecular target: West Nile virus strain USA99b (strain 385-99), whole virus (West Nile virus strain 385-99 (USA99b)); experiment: phage ELISA on coated whole inactivated WNV
[18] = molecular target: West Nile virus strain USA99b (strain 385-99), whole virus (West Nile virus strain 385-99 (USA99b)); experiment: SPR as in Example 9, WNV captured via immobilized CR4283, average of duplicates

B1: CR4289 (antibody, V domains shown)
VH: EVQLVQSGAEVKKPGESLRISCKGSGYSFTSNWITWVRQMPGKGLEWMGRIDPSDSYTNYSPSFQGHVTISADKSISTAYLQWSSLKASDTAMYYCARDVVGVGASDYYYYMDVWGQGTTVTVSS
VL: EIVLTQSPGTLSLSPGETATLSCRTSQSVSSSYLGWYQQKPGQAPRLLIYGASIRATGIPARFSGSGSGTEFTLTIDSLQSEDFAVYYCQQYNNWPPITFGQGTRLEIKR
OD 492 nm [1]: 0.209 OD
OD 492 nm [2]: 0.313 OD
OD 492 nm [3]: 0.351 OD
OD 492 nm [4]: 0.752 OD
OD 492 nm [5]: 0.147 OD
OD 492 nm [6]: 0.003 OD
OD 492 nm [7]: 0.492 OD
OD 492 nm [8]: 0.415 OD
potency in the 66% neutralizing antibody titer assay [9]: 10.1 µg/mL
OD 492 nm [10]: 0.25 OD
OD 492 nm [11]: 0.586 OD

B2: CR4299 (antibody, V domains shown)
VH: QVQLVESGGGVVQPGRSLRLSCAASGFTFSGYAMHWVRQAPGKGLDWVAVISYDGSEKYSADSVKGRFTISRDNSKNTLYLQMNSLRAEDTAVYYCAKESGGPIWYKYYGVDVWGQGTTVTVSS
VL: SYVLTQPPSLSAAPRQRVTISCSGSSSNIGNYGVNWYQQLPGKAPKLLIYYDDLLPSGVSDRFSGSKSGTSASLAISGLQSEDEGDYYCAAWDDTLSAWVFGGGTKLTVLG
OD 492 nm [12]: 1.19 OD
OD 492 nm [13]: 1.48 OD
OD 492 nm [1]: 0.446 OD
OD 492 nm [2]: 0.756 OD
OD 492 nm [14]: 1.34 OD
OD 492 nm [3]: 0.891 OD
OD 492 nm [4]: 1.12 OD
OD 492 nm [5]: 0.227 OD
OD 492 nm [15]: 0.929 OD
OD 492 nm [6]: 0.003 OD
OD 492 nm [7]: 1.03 OD
OD 492 nm [8]: 0.977 OD
potency in the 66% neutralizing antibody titer assay [9]: 3 µg/mL
OD 492 nm [10]: 0.61 OD
OD 492 nm [11]: 1.07 OD

B3: CR4353 (antibody, V domains shown)
VH: QVQLVESGGGVVQPGRSLRLSCAASGFTFSNYAMHWVRQAPGKGLEWVAVISYDGGNKYYADSVKGRFTMSRDNSKNTLYLQMNSLRAEDTAVYYCARDFWSGYSMVDSYYYYMDVWGQGTTVTVSS
VL: ETTLTQSPGTLSLSPGERATLSCRASQSVSNTFLAWYQQKPGQAPRLLIYGASSRATGIPDRFSGSGSGTDFTLTISRLEPEDFAAYYCQQYGSSLTFGPGTKVDIKR
OD 492 nm [1]: 0.734 OD
OD 492 nm [2]: 1.17 OD
OD 492 nm [3]: 1.33 OD
OD 492 nm [4]: 1.57 OD
Kd [16]: 6.5 nM
OD 492 nm [5]: 0.595 OD
OD 492 nm [6]: 0.003 OD
OD 492 nm [7]: 1.43 OD
OD 492 nm [8]: 1.42 OD
OD 492 nm [10]: 1.07 OD
OD 492 nm [11]: 1.55 OD

B4: SC04-353 (scFv)
scFv: EVQLVQSGGGVVQPGRSLRLSCAASGFTFSNYAMHWVRQAPGKGLEWVAVISYDGGNKYYADSVKGRFTMSRDNSKNTLYLQMNSLRAEDTAVYYCARDFWSGYSMVDSYYYYMDVWGKGTTVTVSSGTGGSGGTGSGTGGSTETTLTQSPGTLSLSPGERATLSCRASQSVSNTFLAWYQQKPGQAPRLLIYGASSRATGIPDRFSGSGSGTDFTLTISRLEPEDFAAYYCQQYGSSLTFGPGTKVDIKR
OD 492 nm [17]: 1 OD

B5: SC04-361 (scFv)
scFv: EVQLVQSGAEVKKPGESLKISCKASGFSFSTYWIGWVRQMPGKGLEWMGIIYPADSDTRYSPSFQGQVTISADKSISTAYLQWSSLKASDTAMYYCARLRGPYYDFWNGYRETHDAFNVWGQGTMVTVSSGTGGSGGTGSGTGGSTDVVMTQSPDSLAVSLGERATINCKSSQNILDNSDNKNFLAWYQQKPGQPPKLLIYWASARESGVPDRFSGSGSGTDFTLTISSLQAEDVALYYCQQYYNTPITFGQGTRLEIKR
OD 492 nm [17]: 0.66 OD

B6: CR5074 (antibody, V domains shown)
VH: QVTLKESGPTLVKPTQTLTLTCTFSGFSLSTSGVGVGWIRQPPGKALEWLAVIYWNDDKLYRPSLKSRLTITKDTSKNQVVLTMTKMDPVDTATYYCAHRHRYYDISGYYRLFSDAFDIWGQGTMVTVSS
VL: QSVLTQPPSVSGAPGQRVTISCTGSSSNIGTGYDVHWYQQLPGTAPKLLIYADTNRPSGVPDRFSGSKSGTSASLAITGVQAEDEADYYCQSYDTSLTGWVFGGGTKVTVLG
Kd [18]: 3.9 nM

B7: CR5080 (antibody, V domains shown)
VH: QVTLKESGPTLVKPTQTLTLTCTFSGFSLSTSGVGVGWIRQPPGKALEWLAVIYWNDDKLYRPSLKSRLTITKDTSKNQVVLTMTKMDPVDTATYYCAHRHRYYDISGYYRLFSDAFDIWGQGTMVTVSS
VL: QSVLTQPPSVSGAPGQRVTISCTGSSSNIGAGYDVHWYQQLPGTAPKLLIYGNSNRPSGVPDRFSGSKSGTSASLAITGLQAEDEADYYCQSYDSSLSGWAFGGGTKLTVLG
Kd [18]: 2.7 nM

B8: CR5085 (antibody, V domains shown)
VH: QVTLKESGPTLVKPTQTLTLTCTFSGFSLSTSGVGVGWIRQPPGKALEWLAVIYWNDDKLYRPSLKSRLTITKDTSKNQVVLTMTKMDPVDTATYYCAHRHRYYDISGYYRLFSDAFDIWGQGTMVTVSS
VL: QSVVTQPPSVSGAPGQRVTISCTGSSSNIGAGYDVHWYQQLPGTAPKLLIYGNSNRPSGVPDRFSGSKSGTSASLAITGLQAEDETDYYCQSYDSSLNGWVFGGGTKLTVLG
Kd [18]: 3.7 nM

B9: CR5088 (antibody, V domains shown)
VH: QVTLKESGPTLVKPTQTLTLTCTFSGFSLSTSGVGVGWIRQPPGKALEWLAVIYWNDDKLYRPSLKSRLTITKDTSKNQVVLTMTKMDPVDTATYYCAHRHRYYDISGYYRLFSDAFDIWGQGTMVTVSS
VL: QSVVTQPPSVSGAPGQRITISCTGSSSNIGAGYDVHWYQQLPGTAPKFLIYGNSNRPSGVPDRFSGSKSGTSASLAITGLQAEDEADYYCQSYDSSLSGWVFGGGTKLTVLG
Kd [18]: 1.7 nM

B10: SC04-374 (scFv)
scFv: QVTLKESGPTLVKPTQTLTLTCTFSGFSLSTSGVGVGWIRQPPGKALEWLAVIYWNDDKLYRPSLKSRLTITKDTSKNQVVLTMTKMDPVDTATYYCAHRHRYYDISGYYRLFSDAFDIWGQGTMVTVSSGTGGSGGTGSGTGGSTQSVVTQPPSVSGAPGQRVTISCTGSSSNIGAGYDVHWYQQLPGTAPKLLIYGNSNRPSGVPDRFSGSKSGTSASLAITGLQAEDEADYYCQSYDSSLSGSVFGGGTKLTVLG
OD 492 nm [17]: 0.975 OD
